Laboratory results reported in article PMC2172684 (The Journal of Cell Biology, 2003).
Positions count from the first letter of the chain named. Numbers in names are those of the source. One block for each binder: values may come before it.

Key:
Test in all cases: ELISA
[1] = molecular target: importin β I178A (human, UniProt Q14974 1-876, I178A)
[2] = molecular target: wild-type importin β (human, UniProt Q14974 1-876)
[3] = molecular target: importin β F217A (human, UniProt Q14974 1-876, F217A)
[4] = molecular target: importin β E214A (human, UniProt Q14974 1-876, E214A)
[5] = molecular target: GST–RanGTP (UniProt P62826 1-216)
[6] = molecular target: T1, GST-tagged Nup153 (895–1475) ( (mammalian), UniProt P49790 895-1475)
T1 sequence (looked up): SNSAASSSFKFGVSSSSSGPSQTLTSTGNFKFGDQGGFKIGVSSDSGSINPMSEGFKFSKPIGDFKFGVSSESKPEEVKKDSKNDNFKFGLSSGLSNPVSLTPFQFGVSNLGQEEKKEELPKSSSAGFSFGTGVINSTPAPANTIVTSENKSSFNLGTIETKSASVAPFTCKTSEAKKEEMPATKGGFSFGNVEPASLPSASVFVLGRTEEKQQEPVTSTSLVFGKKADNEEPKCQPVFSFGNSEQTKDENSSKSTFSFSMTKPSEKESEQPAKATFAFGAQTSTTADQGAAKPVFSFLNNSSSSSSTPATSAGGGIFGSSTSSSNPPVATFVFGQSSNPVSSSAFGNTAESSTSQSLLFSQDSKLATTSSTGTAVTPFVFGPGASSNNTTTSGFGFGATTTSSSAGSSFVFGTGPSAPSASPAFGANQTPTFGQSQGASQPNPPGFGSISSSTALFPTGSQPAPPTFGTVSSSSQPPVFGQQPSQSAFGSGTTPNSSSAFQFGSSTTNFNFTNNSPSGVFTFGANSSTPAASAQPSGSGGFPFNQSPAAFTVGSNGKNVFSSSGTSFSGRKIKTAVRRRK

Kd [5]: 3.9 ± 0.4 nM
B2: importin β I178A/F217A/Y255A/I263R (m-N) (natural protein)
chain: MELITILEKTVSPDRLELEAAQKFLERAAVENLPTFLVELSRVLANPGNSQVARVAAGLQIKNSLTSKDPDIKAQYQQRWLAIDANARREVKNYVLQTLGTETYRPSSASQCVAGIACAEIPVNQWPELIPQLVANVTNPNSTEHMKESTLEAIGYICQDIDPEQLQDKSNEILTAIAQGMRKEEPSNNVKLAATNALLNSLEFTKANFDKESERHAIMQVVCEATQCPDTRVRVAALQNLVKIMSLYYQYMETAMGPALFARTIEAMKSDIDEVALQGIEFWSNVCDEEMDLAIEASEAAEQGRPPEHTSKFYAKGALQYLVPILTQTLTKQDENDDDDDWNPCKAAGVCLMLLATCCEDDIVPHVLPFIKEHIKNPDWRYRDAAVMAFGCILEGPEPSQLKPLVIQAMPTLIELMKDPSVVVRDTAAWTVGRICELLPEAAINDVYLAPLLQCLIEGLSAEPRVASNVCWAFSSLAEAAYEAADVADDQEEPATYCLSSSFELIVQKLLETTDRPDGHQNNLRSSAYESLMEIVKNSAKDCYPAVQKTTLVIMERLQQVLQMESHIQSTSDRIQFNDLQSLLCATLQNVLRKVQHQDALQISDVVMASLLRMFQSTAGSGGVQEDALMAVSTLVEVLGGEFLKYMEAFKPFLGIGLKNYAEYQVCLAAVGLVGDLCRALQSNIIPFCDEVMQLLLENLGNENVHRSVKPQILSVFGDIALAIGGEFKKYLEVVLNTLQQASQAQVDKSDYDMVDYLNELRESCLEAYTGIVQGLKGDQENVHPDVMLVQPRVEFILSFIDHIAGDEDHTDGVVACAAGLIGDLCTAFGKDVLKLVEARPMIHELLTEGRRSKTNKAKTLATWATKELRKLKNQA

Kd [6]: 152 ± 17.5 nM
B3: importin β (304–876) (domain or fragment, human, UniProt Q14974 304-876, looked up)
chain: GRPPEHTSKFYAKGALQYLVPILTQTLTKQDENDDDDDWNPCKAAGVCLMLLATCCEDDIVPHVLPFIKEHIKNPDWRYRDAAVMAFGCILEGPEPSQLKPLVIQAMPTLIELMKDPSVVVRDTAAWTVGRICELLPEAAINDVYLAPLLQCLIEGLSAEPRVASNVCWAFSSLAEAAYEAADVADDQEEPATYCLSSSFELIVQKLLETTDRPDGHQNNLRSSAYESLMEIVKNSAKDCYPAVQKTTLVIMERLQQVLQMESHIQSTSDRIQFNDLQSLLCATLQNVLRKVQHQDALQISDVVMASLLRMFQSTAGSGGVQEDALMAVSTLVEVLGGEFLKYMEAFKPFLGIGLKNYAEYQVCLAAVGLVGDLCRALQSNIIPFCDEVMQLLLENLGNENVHRSVKPQILSVFGDIALAIGGEFKKYLEVVLNTLQQASQAQVDKSDYDMVDYLNELRESCLEAYTGIVQGLKGDQENVHPDVMLVQPRVEFILSFIDHIAGDEDHTDGVVACAAGLIGDLCTAFGKDVLKLVEARPMIHELLTEGRRSKTNKAKTLATWATKELRKLKNQA

Second part, the binder before the results:

B1: GST-tagged full-length Nup62 (natural protein, UniProt P17955 1-525, looked up)
chain: MSGFNFGGTGAPAGGFTFGTAKTATTTPATGFSFSASGTGTGGFNFGTPSQPAATTPSTSLFSLATQTSTTQTPGFNFGTTPASGGTGFSLGISTPKLSLSSTAATPATANTGSFGLGSSTLTNAISGASTSSQGTAPTGFVFGSSTTSAPSTGTTGFSFTSGSASQPGASGFNIGSVGSLAQPTALSGSPFTPATLATTTAGATQPAAATPTAATTSAGSTLFASIAAAPASSSTTVLSLSAPATTAATPTAGTLGFSLKAPGAAPGASTTSTTTTTTTTTTTASTSSSTTTTGFALSLKPLVPAGPSSVAATALPASSTAVGTTTGPAMTYAQLESLINKWSLELEDQERHFLQQATQVNAWDRTLIENGEKITSLHREVEKVKLDQKRLDQELDFILSQQKELEDLLSPLEESVKEQSGTIYLQHADEEREKTYKLAENIDAQLKRMAQDLKDIIEHLNMAGGPADTSDPLQQICKILNAHMDSLQWVDQSSALLQRRVEEASRVCESRRKEQERSLRIAFD
Kd [1]: 89 ± 9 nM
Kd [2]: 77.3 ± 11.6 nM
Kd [3]: 227 ± 33.3 nM
Kd [4]: 770 ± 123 nM

B4: importin β (1–396) (domain or fragment, human, UniProt Q14974 1-396, looked up)
chain: MELITILEKTVSPDRLELEAAQKFLERAAVENLPTFLVELSRVLANPGNSQVARVAAGLQIKNSLTSKDPDIKAQYQQRWLAIDANARREVKNYVLQTLGTETYRPSSASQCVAGIACAEIPVNQWPELIPQLVANVTNPNSTEHMKESTLEAIGYICQDIDPEQLQDKSNEILTAIIQGMRKEEPSNNVKLAATNALLNSLEFTKANFDKESERHFIMQVVCEATQCPDTRVRVAALQNLVKIMSLYYQYMETYMGPALFAITIEAMKSDIDEVALQGIEFWSNVCDEEMDLAIEASEAAEQGRPPEHTSKFYAKGALQYLVPILTQTLTKQDENDDDDDWNPCKAAGVCLMLLATCCEDDIVPHVLPFIKEHIKNPDWRYRDAAVMAFGCILEG
Kd [6]: 1.2 ± 0.1 nM

B5: importin β m-N (1–396) (domain or fragment, human, UniProt Q14974 1-396, looked up)
chain: B4 chain with I178A, F217A, Y255A, I263R
Kd [6]: 160 ± 25.3 nM
